Molecular target: prefusion stabilized SARS-CoV-2 S ectodomain (SARS-CoV-2) (UniProt P0DTC2)
Assay: assay not stated; row Binding Affinity Spike Trimer, construct not given

Substance: REGN10933 (antibody)
- Kd: 3 nM

From US20210371503A1
